Results taken from publication PMC1326212, “Dimerization and enzymatic activity of fungal 17β-hydroxysteroid dehydrogenase from the short-chain dehydrogenase/reductase superfamily” (BMC Biochemistry, 2005).

Tests used:
[1] = biological target: T1, 17β-HSDcl (Curvularia lunata, UniProt O93874, H111L); test: intrinsic fluorescence quenching titration; type: binding
T1 construct: gene 17HSDcl; GST fusion (pGex-17β-HSDcl) from E. coli JM107, GST cut off with thrombin; 28 kDa subunit; wild type and H111A homodimeric, H111L and R129D monomeric
Text: (§1) intrinsic fluorescence quenching titration on 17β-HSDcl

[2] = biological target: T2, 17β-HSDcl (Curvularia lunata, UniProt O93874, R129D); test: intrinsic fluorescence quenching titration; type: binding
T2 construct: gene 17HSDcl; GST fusion (pGex-17β-HSDcl) from E. coli JM107, GST cut off with thrombin; 28 kDa subunit; wild type and H111A homodimeric, H111L and R129D monomeric
Text: as §1

[3] = biological target: T3, 17β-HSDcl (Curvularia lunata, UniProt O93874, H111A); test: intrinsic fluorescence quenching titration; type: binding
T3 construct: gene 17HSDcl; GST fusion (pGex-17β-HSDcl) from E. coli JM107, GST cut off with thrombin; 28 kDa subunit; wild type and H111A homodimeric, H111L and R129D monomeric
Text: as §1

[4] = biological target: 17β-HSD type 1 (Homo sapiens) (UniProt P14061); conditions: cited from earlier work
[5] = tested on: NC(=O)c1ccc[n+]([C@@H]2O[C@H](COP(=O)(O)OP(=O)(O)OC[C@H]3O[C@@H](n4cnc5c(N)ncnc54)[C@H](OP(=O)(O)O)[C@@H]3O)[C@@H](O)[C@H]2O)c1; test: purified protein; type: biochemical, Curvularia lunata; conditions: oxidation of 4-estrene-17β-ol-3-one (100 μM), 100 mM phosphate pH 8.0, 25°C, 1% DMF, varied: cofactor
[6] = tested on: NC(=O)C1=CN([C@@H]2O[C@H](COP(=O)(O)OP(=O)(O)OC[C@H]3O[C@@H](n4cnc5c(N)ncnc54)[C@H](OP(=O)(O)O)[C@@H]3O)[C@@H](O)[C@H]2O)C=CC1; test: purified protein; type: biochemical, Curvularia lunata; conditions: reduction of 4-estrene-3,17-dione (100 μM), 100 mM phosphate pH 8.0, 25°C, 1% DMF, varied: cofactor
[7] = biological target: 17β-HSDcl-His111Ala (Cochliobolus lunatus); test: SEC; gel filtration on TSK G4000 SWxl, 100 mM phosphate buffer with 150 mM NaCl, pH 7.0; about 40 μg protein in 100 μl injected, 1.0 ml/min; mass by calibration standards
[8] = biological target: the molecule itself; test: as above

**Q.** For `NC(=O)c1ccc[n+]([C@@H]2O[C@H](COP(=O)(O)OP(=O)(O)OC[C@H]3O[C@@H](n4cnc5c(N)ncnc54)[C@H](OP(=O)(O)O)[C@@H]3O)[C@@H](O)[C@H]2O)c1` [NADP^+], which Kd [1] is on record?
**A.** The Kd was 19.9 µM.

**Q.** And the Kd [2]?
**A.** Its Kd is 12.8 µM.

**Q.** And the Kd [3]?
**A.** Its Kd is 5.8 µM.

**Q.** For 17β-HSD type 1 (from UniProt P14061), which Kd [4] is on record?
**A.** Its Kd is < 5 pM.

**Q.** For 17β-HSDcl (Curvularia lunata; H111A), which Km [5] is on record?
**A.** Its Km is 4.6 µM.

**Q.** What about the kcat [5] of the same molecule?
**A.** The kcat was 0.9 s⁻¹.

**Q.** What about the kcat/Km [5] of the same molecule?
**A.** Its kcat/Km is 190000 M⁻¹ s⁻¹.

**Q.** And the Km [6]?
**A.** The Km was 50.6 µM.

**Q.** What about the kcat [6] of the same molecule?
**A.** Its kcat is 2.4 s⁻¹.

**Q.** And the kcat/Km [6]?
**A.** Its kcat/Km is 47000 M⁻¹ s⁻¹.

**Q.** With 17β-HSDcl-His111Ala (enzyme) as the molecule, how does the stoichiometry N [7] read?
**A.** Its stoichiometry N is 2.

B1: 17β-hydroxysteroid dehydrogenase from Cochliobolus lunatus, wild type (enzyme, UniProt O93874 1-270, looked up)
chain: MPHVENASETYIPGRLDGKVALVTGSGRGIGAAVAVHLGRLGAKVVVNYANSTKDAEKVVSEIKALGSDAIAIKADIRQVPEIVKLFDQAVAHFGHLDIAVSNSGVVSFGHLKDVTEEEFDRVFSLNTRGQFFVAREAYRHLTEGGRIVLTSSNTSKDFSVPKHSLYSGSKGAVDSFVRIFSKDCGDKKITVNAVAPGGTVTDMFHEVSHHYIPNGTSYTAEQRQQMAAHASPLHRNGWPQDVANVVGFLVSKEGEWVNGKVLTLDGGAA
notes: expected molecular mass 28 kDa; also called 17β-HSDcl; fungal 17β-HSD; source: E. coli JM107, GST fusion, purified (Glutathione Sepharose, thrombin cleavage)
**Q.** For B1, which “stoichiometry N” value [8] is on record?
**A.** Its value is 2.
